# According to patent publication US20230192886A1 (IMMATICS BIOTECHNOLOGIES, published 2023):
# B1: TCR R17P1D7 (TCR, V domains shown)
# V domain 1: QTVTQSQPEMSVQEAETVTLSCTYDTSESDYYLFWYKQPPSRQMILVIRQEAYKQQNATENRFSVNFQKAAKSFSLKISDSQLGDAAMYFCAYRWAQGGSEKLVFGKGTKLTVNP
# V domain 2: DIYQTPRYLVIGTGKKITLECSQTMGHDKMYWYQQDPGMELHLIHYSYGVNSTEKGDLSSESTVSRIRTEHFPLTLESARPSHTSQYLCATELWSSGGTGELFFGEGSRLTVLE
# B2: TCR R16P1E8 (TCR, V domains shown)
# V domain 1: QKEVEQDPGPLSVPEGAIVSLNCTYSNSAFQYFMWYRQYSRKGPELLMYTYSSGNKEDGRFTAQVDKSSKYISLFIRDSQPSDSATYLCAMSEAAGNKLTFGGGTRVLVKP
# V domain 2: EAGVAQSPRYKIIEKRQSVAFWCNPISGHATLYWYQQILGQGPKLLIQFQNNGVVDDSQLPKDRFSAERLKGVDSTLKIQPAKLEDSAVYLCASSYTNQGEAFFGQGTRLTVVE
# Molecular target: PRAME-004 peptide presented by HLA-A*02 on target cells (peptide-loaded T2 cells); PRAME-004-presenting tumor … (human)
# Assay: cell-based or functional assay
Binder,"EC50 of IFNγ release, T2 cells loaded with PRAME-004 from 10 µM to 10 pM (FIG. 13) [nM]","EC50 of IFNγ release, T2 cells loaded with PRAME-004 from 10 µM to 10 pM (FIG. 12) [µM]"
B1,1.83,–
B2,–,~1
